Measurements taken from the supplement of paper PMC10724198.
± gives the standard deviation of the averaged measurements.

How the values were obtained:
Assay in all cases: protein stability index of tFT-peptide fusion (C-terminal peptide) (PSI (0-1 scale)); higher = more stable (slower turnover)
Saccharomyces cerevisiae [1] = details: temperature: 30 C
Experimental: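 MPS profiling in S. cerevisiae of the yeast C-terminome library: the last 12 aa of each annotated ORF are fused to the C-terminus of a sfGFP-mCherry timer, after a GGGS linker. Cells are FACS-sorted into 8 mCherry/sfGFP bins and deep-sequenced. PSI runs from 0 (unstable) to 1 (stable); wild type and das1Δ backgrounds, two technical replicates each.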

Saccharomyces cerevisiae [2] = tested on: Saccharomyces cerevisiae
Experimental: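 MPS profiling in S. cerevisiae of the tFT-X12 degron library: putative degron peptides plus stable controls, 12 aa, fused to the C-terminus of a sfGFP-mCherry timer. Cells are FACS-sorted into 8 mCherry/sfGFP bins and deep-sequenced. PSI runs from 0 (unstable) to 1 (stable). Backgrounds are wild type, das1Δ and doa10Δ at 30 °C, and wild type, das1Δ, cdc34-1 and cdc53-1 at 37 °C; 2-3 technical replicates each.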

Saccharomyces cerevisiae [3] = details: genetic background: wild type; temperature: 30 C
[4] = genetic background: das1 deletion
[5] = genetic background: cdc34-1, temperature: 37 C
[6] = genetic background: cdc53-1, temperature: 37 C
[7] = genetic background: das1 deletion, temperature: 30 C
[8] = genetic background: das1 deletion, temperature: 37 C
[9] = genetic background: doa10 deletion, temperature: 30 C
[10] = genetic background: wild type, temperature: 30 C
[11] = genetic background: wild type, temperature: 37 C

Row | Sequence | protein stability index (Saccharomyces cerevisiae [1]; [4]) | protein stability index (Saccharomyces cerevisiae [1]; genetic background: wild type) | protein stability index (Saccharomyces cerevisiae [2]; [5]) | protein stability index (Saccharomyces cerevisiae [2]; [6]) | protein stability index (Saccharomyces cerevisiae [2]; [7]) | protein stability index (Saccharomyces cerevisiae [2]; [8]) | protein stability index (Saccharomyces cerevisiae [2]; [9]) | protein stability index (Saccharomyces cerevisiae [2]; [10]) | protein stability index (Saccharomyces cerevisiae [2]; [11]) | protein stability index (Saccharomyces cerevisiae [3])
1 | AAISFKEAARTD [HYP2 C-terminal 12 aa] | 0.725 ± 0.019 | 0.725 ± 0.07 |  |  |  |  |  |  |  | 
2 | AAMLTSENAREI [RRP45 C-terminal 12 aa] | 0.707 ± 0.01 | 0.676 ± 0.035 |  |  |  |  |  |  |  | 
3 | AARADRGANFRD [SPT16 C-terminal 12 aa] | 0.677 ± 0.022 | 0.726 ± 0.012 |  |  |  |  |  |  |  | 
4 | AAVKLSQAKSKL [FOX2 C-terminal 12 aa] | 0.823 ± 0.019 | 0.752 ± 0.014 |  |  |  |  |  |  |  | 
5 | ADDDIFVNGFLR [YHL002C-A C-terminal 12 aa] | 0.719 ± 0.02 | 0.7 ± 0.023 |  |  |  |  |  |  |  | 
6 | ADMTKEFERESS [GLN1 C-terminal 12 aa] | 0.724 ± 0.018 | 0.701 ± 0.038 |  |  |  |  |  |  |  | 
7 | AFKKAQAEKSKK [NOP12 C-terminal 12 aa] | 0.699 ± 0.054 | 0.73 ± 0.085 |  |  |  |  |  |  |  | 
8 | AGAAWFFVKLLG [CCC1 C-terminal 12 aa] | 0.67 ± 0.017 | 0.476 ± 0.045 |  |  |  |  |  |  |  | 
9 | VLCFFWWWCRVC |  |  | 0.4 ± 0.021 | 0.525 ± 0.038 | 0.472 ± 0.019 | 0.583 ± 0.044 | 0.353 ± 0.02 | 0.324 ± 0.035 | 0.4133 ± 0.001 | 0.43 ± 0.017
10 | VLFVRGHTLWLM |  |  | 0.6124 ± 0.0026 | 0.675 ± 0.01 | 0.556 ± 0.024 | 0.702 ± 0.025 | 0.4861 ± 0.0031 | 0.458 ± 0.017 | 0.6344 ± 0.0035 | 0.505 ± 0.033
11 | VLSCIPRLAIAA |  |  | 0.335 ± 0.01 | 0.372 ± 0.019 | 0.284 ± 0.023 | 0.404 ± 0.008 | 0.235 ± 0.0017 | 0.251 ± 0.0058 | 0.318 ± 0.0072 | 0.327 ± 0.017
12 | VLVVTAFTFSCP |  |  | 0.352 ± 0.049 | 0.4393 ± 0.00063 | 0.327 ± 0.018 | 0.416 ± 0.022 | 0.319 ± 0.015 | 0.317 ± 0.015 | 0.392 ± 0.02 | 0.324 ± 0.0049
13 | VLVVVRSLSFLS |  |  | 0.405 ± 0.065 | 0.51 ± 0.011 | 0.347 ± 0.025 | 0.534 ± 0.015 | 0.308 ± 0.013 | 0.31 ± 0.023 | 0.496 ± 0.013 | 0.382 ± 0.019
14 | VNRRCWISRTLP |  |  | 0.599 ± 0.023 | 0.716 ± 0.0041 | 0.645 ± 0.024 | 0.713 ± 0.012 | 0.137 ± 0.039 | 0.174 ± 0.04 | 0.289 ± 0.058 | 0.258 ± 0.065
15 | VPASWLRMLAFC |  |  | 0.197 ± 0.0024 | 0.578 ± 0.025 | 0.559 ± 0.024 | 0.701 ± 0.047 | 0.0659 ± 0.0043 | 0.0647 ± 0.013 | 0.0629 ± 0.016 | 0.05335 ± 0.00032
16 | VRFSAVFVKVGV |  |  | 0.547 ± 0.031 | 0.553 ± 0.0091 | 0.395 ± 0.026 | 0.5703 ± 0.0032 | 0.377 ± 0.0083 | 0.402 ± 0.023 | 0.5317 ± 0.0017 | 0.4727 ± 0.0026
17 | VRIGCSLLFFLP |  |  | 0.661 ± 0.036 | 0.734 ± 0.014 | 0.589 ± 0.0067 | 0.6934 ± 0.0062 | 0.478 ± 0.015 | 0.501 ± 0.015 | 0.6267 ± 0.0046 | 0.532 ± 0.051
18 | VRSELHINSFIH |  |  | 0.656 ± 0.0076 | 0.767 ± 0.017 | 0.682 ± 0.017 | 0.741 ± 0.017 | 0.499 ± 0.047 | 0.501 ± 0.015 | 0.681 ± 0.025 | 0.53 ± 0.054
19 | VRTFVFLVGYCE |  |  | 0.594 ± 0.032 | 0.62 ± 0.024 | 0.406 ± 0.027 | 0.614 ± 0.023 | 0.393 ± 0.035 | 0.394 ± 0.034 | 0.557 ± 0.04 | 0.458 ± 0.036
20 | VRVFSLVVCWVV |  |  | 0.297 ± 0.064 | 0.359 ± 0.0043 | 0.262 ± 0.026 | 0.441 ± 0.0051 | 0.199 ± 0.004 | 0.219 ± 0.028 | 0.367 ± 0.032 | 0.414 ± 0.037

Row | Sequence | protein stability index (Saccharomyces cerevisiae [1]; [4]) | protein stability index (Saccharomyces cerevisiae [1]; genetic background: wild type) | protein stability index (Saccharomyces cerevisiae [2]; [5]) | protein stability index (Saccharomyces cerevisiae [2]; [6]) | protein stability index (Saccharomyces cerevisiae [2]; [7]) | protein stability index (Saccharomyces cerevisiae [2]; [8]) | protein stability index (Saccharomyces cerevisiae [2]; [9]) | protein stability index (Saccharomyces cerevisiae [2]; [10]) | protein stability index (Saccharomyces cerevisiae [2]; [11]) | protein stability index (Saccharomyces cerevisiae [3])
21 | VSSSFSVLVLLF |  |  | 0.448 ± 0.017 | 0.545 ± 0.035 | 0.375 ± 0.037 | 0.571 ± 0.013 | 0.317 ± 0.02 | 0.339 ± 0.026 | 0.52 ± 0.035 | 0.421 ± 0.021
22 | VTLVIYVLVQLT |  |  | 0.148 ± 0.062 | 0.198 ± 0.11 | 0.156 ± 0.044 | 0.259 ± 0.0037 | 0.123 ± 0.02 | 0.15 ± 0.031 | 0.216 ± 0.037 | 0.188 ± 0.035
23 | VTTTWTWTVRLC |  |  | 0.538 ± 0.045 | 0.631 ± 0.016 | 0.54 ± 0.018 | 0.656 ± 0.034 | 0.0752 ± 0.019 | 0.0807 ± 0.024 | 0.149 ± 0.0059 | 0.15 ± 0.024
24 | VVAALTPLITVA |  |  | 0.0655 ± 0.023 | 0.084 ± 0.0042 | 0.183 ± 0.021 | 0.202 ± 0.0041 | 0.151 ± 0.011 | 0.179 ± 0.024 | 0.138 ± 0.0061 | 0.261 ± 0.04
25 | VVLAFFFWFFVG |  |  | 0.359 ± 0.04 | 0.518 ± 0.028 | 0.383 ± 0.034 | 0.507 ± 0.011 | 0.25 ± 0.0047 | 0.265 ± 0.038 | 0.362 ± 0.01 | 0.365 ± 0.016
26 | VVLRCGCLVFIN |  |  | 0.419 ± 0.027 | 0.5767 ± 0.0053 | 0.398 ± 0.023 | 0.6443 ± 0.0057 | 0.0928 ± 0.0026 | 0.105 ± 0.017 | 0.0809 ± 0.0089 | 0.134 ± 0.051
27 | VVRMRPRLFSLY |  |  | 0.807 ± 0.04 | 0.8659 ± 0.0019 | 0.687 ± 0.047 | 0.816 ± 0.025 | 0.186 ± 0.011 | 0.208 ± 0.0086 | 0.354 ± 0.033 | 0.3429 ± 0.0022
28 | VVTFCCARVTKI |  |  | 0.665 ± 0.048 | 0.6997 ± 0.0057 | 0.622 ± 0.038 | 0.665 ± 0.01 | 0.585 ± 0.026 | 0.571 ± 0.025 | 0.651 ± 0.021 | 0.522 ± 0.043
29 | VVTFLCPLVGHV |  |  | 0.527 ± 0.023 | 0.501 ± 0.0074 | 0.372 ± 0.029 | 0.546 ± 0.012 | 0.341 ± 0.017 | 0.381 ± 0.013 | 0.507 ± 0.028 | 0.478 ± 0.019
30 | VVWFCGFFFVMV |  |  | 0.386 ± 0.0054 | 0.449 ± 0.029 | 0.356 ± 0.036 | 0.509 ± 0.016 | 0.365 ± 0.031 | 0.325 ± 0.03 | 0.465 ± 0.012 | 0.399 ± 0.032
31 | VWCVFHVWSGRL |  |  | 0.49 ± 0.035 | 0.585 ± 0.016 | 0.42 ± 0.023 | 0.6175 ± 0.0012 | 0.38 ± 0.007 | 0.409 ± 0.018 | 0.58 ± 0.012 | 0.494 ± 0.029
32 | VWFVFVCAVCVL |  |  | 0.191 ± 0.029 | 0.298 ± 0.015 | 0.205 ± 0.012 | 0.3464 ± 0.003 | 0.138 ± 0.033 | 0.163 ± 0.023 | 0.271 ± 0.012 | 0.273 ± 0.0097
33 | VWGLGWLVVGVG |  |  | 0.179 ± 0.0033 | 0.218 ± 0.029 | 0.185 ± 0.023 | 0.284 ± 0.012 | 0.165 ± 0.0044 | 0.179 ± 0.018 | 0.267 ± 0.0082 | 0.221 ± 0.011
34 | VWPLAFFLRFFI |  |  | 0.547 ± 0.063 | 0.6021 ± 0.0019 | 0.529 ± 0.017 | 0.682 ± 0.017 | 0.247 ± 0.015 | 0.233 ± 0.013 | 0.3623 ± 0.0036 | 0.288 ± 0.014
35 | VWSSSYVPLGVY |  |  | 0.319 ± 0.015 | 0.326 ± 0.066 | 0.275 ± 0.044 | 0.443 ± 0.0067 | 0.231 ± 0.015 | 0.271 ± 0.033 | 0.384 ± 0.013 | 0.398 ± 0.044
36 | VWWTLWRVHMLG |  |  | 0.583 ± 0.028 | 0.644 ± 0.0072 | 0.592 ± 0.018 | 0.7151 ± 0.0031 | 0.106 ± 0.03 | 0.142 ± 0.021 | 0.218 ± 0.026 | 0.243 ± 0.024
37 | VYCLFLPLGVAF |  |  | 0.115 ± 0.038 | 0.175 ± 0.072 | 0.184 ± 0.02 | 0.248 ± 0.0082 | 0.146 ± 0.016 | 0.171 ± 0.022 | 0.207 ± 0.026 | 0.27 ± 0.027
38 | VYCLVLFFSQWC |  |  | 0.42 ± 0.03 | 0.484 ± 0.011 | 0.365 ± 0.025 | 0.543 ± 0.016 | 0.353 ± 0.013 | 0.351 ± 0.016 | 0.509 ± 0.013 | 0.452 ± 0.011
39 | VYFPRLLVRVSW |  |  | 0.4489 ± 0.0015 | 0.472 ± 0.017 | 0.392 ± 0.029 | 0.508 ± 0.0082 | 0.436 ± 0.0082 | 0.377 ± 0.043 | 0.4787 ± 0.00097 | 0.407 ± 0.095
